Assay results from article PMC9776105.

Biological target: single chain variable fragment (scFv) from the CR3022 antibody with a cysteine-containing linker
Assay: SPR

Spike Receptor Binding Domain SARS-CoV-2 (from UniProt P0DTC2) (domain or fragment)
SPR response in the specificity test: 4.22 ru
change in Resonance Unit at 50 ng/mL RBD: 1.13 RU
change in Resonance Unit at 100 ng/mL RBD: 3.01 RU
change in Resonance Unit at 150 ng/mL RBD: 3.74 RU
change in Resonance Unit at 200 ng/mL RBD: 3.98 RU
